System: MS2 coat protein
Test: apparent KD of MS2 coat protein; designed switch direction (-1 OFF switch, 1 ON switch): -1; higher = weaker reporter binding
Outline: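 Apparent KD, taken as the median over clusters for each design, was obtained by curve-fitting normalised cluster fluorescence. Designed RNA switches had been transcribed on Illumina chips by stalled E. coli RNA polymerase and titrated with SNAP-549-labelled MS2 coat protein, doubling from 0.7 or 1.5 nM to 3 µM.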

[1] = Eterna round: R95, input ligand: microRNA oligo, concentration not stated
[2] = input ligand: microRNA oligo, concentration not stated

GUAAGAUCCGUCAGGAUAUAUGCCCAAGGAGGGACGUAGAAGGGACAUGAGGAUCACCCAUGUACCUCAAGGAU [Eternabot (L1) Solution 97] (Eterna round: R97, puzzle: Brourd's mod of Exclusion 4)
apparent KD of MS2 coat protein (input ligand: FMN 200 uM): 17.6 nM
apparent KD of MS2 coat protein (input ligand: none): 16.1 nM

GUAAUGUGAGGAUAUGGUAAAGAUAAGAUGAUGAAAGAACUCCAGAAGGCACAUGAGGAUCACCCAUGUAGAUG [Mat - Exclusion 4 - Mod of JL - D27] (puzzle: Exclusion 4)
apparent KD of MS2 coat protein [1]: 26.1 nM

GUACUACAUGAGGAUCACCCAUGUCAGGAUAUUUGAAUUUCAUCAAAAGAUGAAAUUCGGAGAAGGGACAGUAC [Omei Ex1 A7] (Eterna round: R97, puzzle: Exclusion 1)
apparent KD of MS2 coat protein (input ligand: FMN 200 uM): 31.1 nM
apparent KD of MS2 coat protein (input ligand: none): 21.7 nM

GUAGAGUAAGGAUAUAGUGAAUAGGAUAGAAUGGUUAGAAACUAGAAGGUACAUGAGGAUCACCCAUGUAAUGU [Excluse me!!!! 21 - Jieux - Exclusion 4] (puzzle: Exclusion 4)
apparent KD of MS2 coat protein [1]: 20.4 nM

GUAGAGUAAGGAUAUUGUGAAUAGGAUAGAAUGGUUAGAAACAAGAAGGUACAUGAGGAUCACCCAUGUAAUGU [Excluse me!!!! 20 - Jieux - Exclusion 4] (puzzle: Exclusion 4)
apparent KD of MS2 coat protein [1]: 21.3 nM

GUAGAGUCAGGAUAUACAAGAUCGAUAGAUCGGCGGUCCAUACAUGAGGAUCACCCAUGUAGAAGGGACUCUAC [Mat - Exclusion 2 - Eli Mod - D5] (Eterna round: R97, puzzle: Exclusion 2)
apparent KD of MS2 coat protein (input ligand: FMN 200 uM): 514 nM
apparent KD of MS2 coat protein (input ligand: none): 27.2 nM

GUAGAGUCAGGAUAUACGAGAUCGAAAGAUCAAAGAUCCUUACAUGAGGAUCACCCAUGUAGAAGGGACUCUAC [Eli x2 4.14] (Eterna round: R97, puzzle: Exclusion 2)
apparent KD of MS2 coat protein (input ligand: FMN 200 uM): 574 nM
apparent KD of MS2 coat protein (input ligand: none): 37.1 nM

GUAGAGUCAGGAUAUACGGGAUCGAAAGAUCGGCGAUCCAUACAUGAGGAUCACCCAUGUAGAAGGGACUCUAC [Omei mod 10 to Eli's favorate candidate (ch.parushev)] (Eterna round: R97, puzzle: Exclusion 2)
apparent KD of MS2 coat protein (input ligand: FMN 200 uM): 189 nM
apparent KD of MS2 coat protein (input ligand: none): 22.7 nM

GUAUAACAUGUAGGAUAUGCGUGGCGAAGCUAUGCAGAAGGACAUGAGGAUCACCCAUGUUAUAGCGUCUGCGUACAGAUGCUA [Mat - Exclusion NG 1 - Mod of JL - D93] (Eterna round: R96, puzzle: Exclusion NG 1)
apparent KD of MS2 coat protein (input ligand: FMN 200 uM): 204 nM
apparent KD of MS2 coat protein [2]: 26.2 nM
apparent KD of MS2 coat protein (input ligand: none): 24.5 nM

GUAUAUAGUGUGAGGAUAUGCUGGUCCUUGGAUCAGCAGAAGGCACAUGAGGAUCACCCAUGUAGUUUAUUAUU [Mat - Exclusion 4 - JL Mod - D9] (puzzle: Brourd's mod of Exclusion 4)
apparent KD of MS2 coat protein [1]: 24.1 nM

GUAUCGUGAGGAUAUCAUGAUUGACUUUUGUUUUGUCAGCGUGAGAAGGCACAUGAGGAUCACCCAUGUGAUUA [Ex4 - 3 - 9] (puzzle: Exclusion 4)
apparent KD of MS2 coat protein [1]: 22.3 nM

GUAUGUUCCUGAGGAUAUCGAGCCAUCGACCGCCGAGAAGGCAGAGACAUGAGGAUCACCCAUGUGAAGUAAUGGCGAUGAGAA [Eternabot solution 13] (Eterna round: R96, puzzle: Exclusion NG 1)
apparent KD of MS2 coat protein (input ligand: FMN 200 uM): 15.4 nM
apparent KD of MS2 coat protein [2]: 10.8 nM
apparent KD of MS2 coat protein (input ligand: none): 17 nM

GUCACAUGGACAUAGGAUCACAUGAGGAUCACCCAUGUGACUAACAAGCUUUUUGUUCGUCUUAUGUCCAUGUGAAA [Stov1/15-B2] (Eterna round: R97, puzzle: Sensor, turn-off variant 1)
apparent KD of MS2 coat protein (input ligand: FMN 200 uM): 15.3 nM
apparent KD of MS2 coat protein (input ligand: none): 11.2 nM

GUCACUAGAGGAUAUACAAUGGUAUAUGAUCCUAGAGACAUACAUGAGGAUCACCCAUGUAGAAGGCUAGUAAU [Exclusion 2 - 6] (puzzle: Exclusion 2)
apparent KD of MS2 coat protein [1]: 68.7 nM

GUCAGACGAGGAUAUGAUAAUUAAUACAUGAGGAUCACCCAUGUAAUACUGAUCCAUGGAUCAGAAGGCGUCUGAC [E5/4-A4] (Eterna round: R97, puzzle: Exclusion 5)
apparent KD of MS2 coat protein (input ligand: FMN 200 uM): 42.7 nM
apparent KD of MS2 coat protein (input ligand: none): 17.6 nM

GUCAGCUCGUCAGGAUAUGAACAUGAGGAUCACCCAUGUAAGAUCAAGCUGCUUCGGCAGCAAGUUCAGAAGGGACGAGCUGAC [ENG2/10-B1] (Eterna round: R96, puzzle: Exclusion NG 2)
apparent KD of MS2 coat protein (input ligand: FMN 200 uM): 161 nM
apparent KD of MS2 coat protein [2]: 78.7 nM
apparent KD of MS2 coat protein (input ligand: none): 113 nM

GUCAGCUCGUGAGGAUAUACAUGAGGAUCACCCAUGUGAUCAAUAGCAGCUUCGGCUGCAUUAAUGUAGAAGGCACGAGCUGAU [ENG2/5-A2] (Eterna round: R96, puzzle: Exclusion NG 2)
apparent KD of MS2 coat protein (input ligand: FMN 200 uM): 10.1 nM
apparent KD of MS2 coat protein [2]: 166 nM
apparent KD of MS2 coat protein (input ligand: none): 203 nM

GUCAGCUCGUGAGGAUAUACAUGCGUGCUUCGGCACGUAUGAUAGAUCACAUGAGGAUCACCCAUGUAGAAGGCACGAGCUGAU [ENG2/4-A2] (Eterna round: R96, puzzle: Exclusion NG 2)
apparent KD of MS2 coat protein (input ligand: FMN 200 uM): 21.7 nM
apparent KD of MS2 coat protein [2]: 10.4 nM
apparent KD of MS2 coat protein (input ligand: none): 11.8 nM

GUCAUCAAACAUGGGUUAAACAUGAGGAUCACCCAUGUAUACAAGUUUUUUGCUCGUCUUAUAAUAAGUUUGAUGAC [Antenna 7 - Jieux - Sensor, turn-off variant 1] (Eterna round: R97, puzzle: Sensor, turn-off variant 1)
apparent KD of MS2 coat protein (input ligand: FMN 200 uM): 59.9 nM
apparent KD of MS2 coat protein (input ligand: none): 66.8 nM

GUCAUGUUAGGAUAUUUCCCAGCUGAGACUACAGAUUGUAGGAAGAAGGAACAUGAGGAUCACCCAUGUGAAAA [Eternabot (L2) Solution 28] (Eterna round: R97, puzzle: Exclusion 4)
apparent KD of MS2 coat protein (input ligand: FMN 200 uM): 36.6 nM
apparent KD of MS2 coat protein (input ligand: none): 39 nM

GUCCCGGAAGGAUAUGCAGAGCACGAUCCCGUUAAAGGGCCACAUGAGGAUCACCCAUGUAGAAGGUCCAGGGC [EX2 B.21] (Eterna round: R97, puzzle: Exclusion 2)
apparent KD of MS2 coat protein (input ligand: FMN 200 uM): 32.8 nM
apparent KD of MS2 coat protein (input ligand: none): 13.1 nM

GUCCUACAUGAGGAUCACCCAUGUGAGGAUAUGCGAUUAGCUGCUAGGUAGUUAGUAUGUAGAAGGCGCAUGAA [EX1 #77] (Eterna round: R97, puzzle: Exclusion 1)
apparent KD of MS2 coat protein (input ligand: FMN 200 uM): 15.9 nM
apparent KD of MS2 coat protein (input ligand: none): 14.6 nM

GUCCUCUUGACAUGAGGAUCACCCAUGUAUUAUUUGUUAACUGAGGAUAUACUCUUAUUUUUUAUGUAGAAGGCAGAUUUGUUC [JR_ExcNG3_Sub022] (Eterna round: R96, puzzle: Exclusion NG 3)
apparent KD of MS2 coat protein [2]: 32.1 nM

GUCCUGGAAUAUCAGUCGCACAUGAGGAUCACCCAUGUCAUGGGUAGAUCAAUAAAUAAAGAUACUGCUCGUCUUAU [Cac sensor turnoff var1 sub3] (Eterna round: R97, puzzle: Sensor, turn-off variant 1)
apparent KD of MS2 coat protein (input ligand: FMN 200 uM): 186 nM
apparent KD of MS2 coat protein (input ligand: none): 409 nM

GUCUACAUGACAUGAGGAUCACCCAUGUGUUAUAUUUUUACUAAGGAUAUAUUUUUAAUGUUGAGAUAGAAGGUAGUUUCGGUC [JR_ExcNG3_Sub093] (Eterna round: R96, puzzle: Exclusion NG 3)
apparent KD of MS2 coat protein [2]: 32.8 nM

GUCUCACAUGAGGAUCACCCAUGUGAGGAUAUGGUUUCGCUGGCCGUAGCCAGUGGAACCAGAAGGCGCAUGAU [Mat - Exclusion 1 - JL Mod - D3] (Eterna round: R97, puzzle: Exclusion 1)
apparent KD of MS2 coat protein (input ligand: FMN 200 uM): 24.7 nM
apparent KD of MS2 coat protein (input ligand: none): 23 nM
